In publication PMC10412585, “High-throughput characterization of HLA-E-presented CD94/NKG2x ligands reveals peptides which modulate NK cell activation” (Nature Communications, 2023):
Values belong to the binder of their own block, whether it stands above or below them.

Experiments:
[1] = biological target: … peptide HLA-E single chain trimer (soluble, biotinylated) (human, biotin (AviTag)); experiment: SPR; details: both partners purified
[2] = biological target: WN peptide (…) HLA-E single chain trimer (soluble, biotinylated) (human, biotin (AviTag)); experiment: SPR; steady state, Biacore T200, biotinylated pMHC SCT immobilised at about 400 RU on a Series S SA chip, CD94/NKG2x as analyte 0.1-102.4 μM, 10 μL/min, 25 °C, HBS-EP+; reference HLA-DR401; approximate KD by Biacore software; details: both partners purified

- Kd [1]: ~21.4 µM
- Kd [2]: ~17.4 µM
B1: CD94/NKG2C single-chain fusion protein (human NKG2C ectodomain - GGSGGS - human CD94 ectodomain), produced in Hi5 cells for SPR (receptor)
chain: not shown
notes: also called CD94/NKG2x

- Kd [1]: ~8.2 µM
- Kd [2]: ~41.5 µM
B2: CD94/NKG2A single-chain fusion protein (human NKG2A ectodomain - GGSGGS - human CD94 ectodomain), produced in Hi5 cells for SPR (receptor)
chain: not shown
notes: also called CD94/NKG2x
